Test results as given in US20250066503A1, “CELL INJURY INDUCING THERAPEUTIC DRUG FOR USE IN CANCER THERAPY” (CHUGAI SEIYAKU KABUSHIKI KAISHA, priority 2016, published 2025).

Target: T1, soluble human CD3 epsilon chain (human, UniProt P07766 23-126)
T1 construct: also called CD3ε
Experiment: SPR

T1 sequence (P07766 23-126 limits assumed): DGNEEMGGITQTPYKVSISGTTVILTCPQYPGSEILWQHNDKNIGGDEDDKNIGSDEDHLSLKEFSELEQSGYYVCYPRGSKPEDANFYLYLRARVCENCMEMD

Binder	Kd
TR01H040-E22Hh/none-Hi-Kn010G3/L0226-k0 (antibody, V domains shown, one-arm) VH: QVQLVESGGGLVQPGRSLRLSCAASGFTFSNAWMHWVRQAPGKGLEWVAQIKDKSQNYATYYAESVKGRFTISRADSKNSIYLQMNSLKTEDTAVYYCRYVHYSASYGVDAWGQGTTVTVSS VL: DIVMTQSPLSLPVTPGEPASISCRSSQSPVHSNRNTYIHWYQQKPGQAPRLLIYKVSNRFSGVPDRFSGSGSGTDFTLKISRVEAEDVGVYYCIQGTQVPYTFGQGTKLEIK	80.1 nM
TR01H040-E22Hh/none-Hi-Kn010G3/L0235-k0 (antibody, V domains shown, one-arm) VH: QVQLVESGGGLVQPGRSLRLSCAASGFTFSNAWMHWVRQAPGKGLEWVAQIKDKSQNYATYYAESVKGRFTISRADSKNSIYLQMNSLKTEDTAVYYCRYVHYSASYGVDAWGQGTTVTVSS VL: DIVMTQSPLSLPVTPGEPASISCRSSQEPVHSNRNTYLHWYQQKPGQAPRLLIYKVSNRFSGVPDRFSGSGSGTDFTLKISRVEAEDVGVYYCYQGTQVPYTFGQGTKLEIK	2.81 nM
TR01H040-E22Hh/none-Hi-Kn010G3/L0234-k0 (antibody, V domains shown, one-arm) VH: QVQLVESGGGLVQPGRSLRLSCAASGFTFSNAWMHWVRQAPGKGLEWVAQIKDKSQNYATYYAESVKGRFTISRADSKNSIYLQMNSLKTEDTAVYYCRYVHYSASYGVDAWGQGTTVTVSS VL: DIVMTQSPLSLPVTPGEPASISCRSSQEPVHSNRNTYLHWYQQKPGQAPRLLIYKVSNRFRGVPDRFSGSGSGTDFTLKISRVEAEDVGVYYCGQGTQVPYTFGQGTKLEIK	24 nM
TR01H040-E22Hh/none-Hi-Kn010G3/L0231-k0 (antibody, V domains shown, one-arm) VH: QVQLVESGGGLVQPGRSLRLSCAASGFTFSNAWMHWVRQAPGKGLEWVAQIKDKSQNYATYYAESVKGRFTISRADSKNSIYLQMNSLKTEDTAVYYCRYVHYSASYGVDAWGQGTTVTVSS VL: DIVMTQSPLSLPVTPGEPASISCRSSQSPVHSNRNTYIHWYQQKPGQAPRLLIYKVSNRFSGVPDRFSGSGSGTDFTLKISRVEAEDVGVYYCYQGTQWPYTFGQGTKLEIK	7.75 nM
TR01H040-E22Hh/none-Hi-Kn010G3/L0239-k0 (antibody, V domains shown, one-arm) VH: QVQLVESGGGLVQPGRSLRLSCAASGFTFSNAWMHWVRQAPGKGLEWVAQIKDKSQNYATYYAESVKGRFTISRADSKNSIYLQMNSLKTEDTAVYYCRYVHYSASYGVDAWGQGTTVTVSS VL: DIVMTQSPLSLPVTPGEPASISCRSSESPVHSNRNTYLHWYQQKPGQAPRLLIYKVSNRFRGVPDRFSGSGSGTDFTLKISRVEAEDVGVYYCGQGTQVPYTFGQGTKLEIK	23.1 nM
TR01H040-E22Hh/none-Hi-Kn010G3/L0240-k0 (antibody, V domains shown, one-arm) VH: QVQLVESGGGLVQPGRSLRLSCAASGFTFSNAWMHWVRQAPGKGLEWVAQIKDKSQNYATYYAESVKGRFTISRADSKNSIYLQMNSLKTEDTAVYYCRYVHYSASYGVDAWGQGTTVTVSS VL: DIVMTQSPLSLPVTPGEPASISCRSSESPVHSNRNTYLHWYQQKPGQAPRLLIYKVSNRFSGVPDRFSGSGSGTDFTLKISRVEAEDVGVYYCYQGTQVPYTFGQGTKLEIK	2.17 nM
TR01H040-E22Hh/none-Hi-Kn010G3/L0233-k0 (antibody, V domains shown, one-arm) VH: QVQLVESGGGLVQPGRSLRLSCAASGFTFSNAWMHWVRQAPGKGLEWVAQIKDKSQNYATYYAESVKGRFTISRADSKNSIYLQMNSLKTEDTAVYYCRYVHYSASYGVDAWGQGTTVTVSS VL: DIVMTQSPLSLPVTPGEPASISCRSSQELVHSNRNTYLHWYQQKPGQAPRLLIYKVSNRFSGVPDRFSGSGSGTDFTLKISRVEAEDVGVYYCGQGTQVPYTFGQGTKLEIK	40.1 nM
TR01H040-E22Hh/none-Hi-Kn010G3/L0227-k0 (antibody, V domains shown, one-arm) VH: QVQLVESGGGLVQPGRSLRLSCAASGFTFSNAWMHWVRQAPGKGLEWVAQIKDKSQNYATYYAESVKGRFTISRADSKNSIYLQMNSLKTEDTAVYYCRYVHYSASYGVDAWGQGTTVTVSS VL: DIVMTQSPLSLPVTPGEPASISCRSSQSPVHSNRNTYIHWYQQKPGQAPRLLIYKVSNRFSGVPDRFSGSGSGTDFTLKISRVEAEDVGVYYCLQGTQVPYTFGQGTKLEIK	101 nM
TR01H040-E22Hh/none-Hi-Kn010G3/L0237-k0 (antibody, V domains shown, one-arm) VH: QVQLVESGGGLVQPGRSLRLSCAASGFTFSNAWMHWVRQAPGKGLEWVAQIKDKSQNYATYYAESVKGRFTISRADSKNSIYLQMNSLKTEDTAVYYCRYVHYSASYGVDAWGQGTTVTVSS VL: DIVMTQSPLSLPVTPGEPASISCRSSQEPVHSNRNTYIHWYQQKPGQAPRLLIYKVSNRFSGVPDRFSGSGSGTDFTLKISRVEAEDVGVYYCYQGTQVPYTFGQGTKLEIK	10.2 nM
TR01H040-E22Hh/none-Hi-Kn010G3/L0236-k0 (antibody, V domains shown, one-arm) VH: QVQLVESGGGLVQPGRSLRLSCAASGFTFSNAWMHWVRQAPGKGLEWVAQIKDKSQNYATYYAESVKGRFTISRADSKNSIYLQMNSLKTEDTAVYYCRYVHYSASYGVDAWGQGTTVTVSS VL: DIVMTQSPLSLPVTPGEPASISCRSSQEPVHSNRNTYLHWYQQKPGQAPRLLIYKVSNRFWGVPDRFSGSGSGTDFTLKISRVEAEDVGVYYCYQGTQVPYTFGQGTKLEIK	5.64 nM
TR01H040-E22Hh/none-Hi-Kn010G3/L0238-k0 (antibody, V domains shown, one-arm) VH: QVQLVESGGGLVQPGRSLRLSCAASGFTFSNAWMHWVRQAPGKGLEWVAQIKDKSQNYATYYAESVKGRFTISRADSKNSIYLQMNSLKTEDTAVYYCRYVHYSASYGVDAWGQGTTVTVSS VL: DIVMTQSPLSLPVTPGEPASISCRSSEPPVHSNRNTYLHWYQQKPGQAPRLLIYKVSNRFSGVPDRFSGSGSGTDFTLKISRVEAEDVGVYYCYQGTQVPYTFGQGTKLEIK	2.91 nM
TR01H040-E22Hh/none-Hi-Kn010G3/L0228-k0 (antibody, V domains shown, one-arm) VH: QVQLVESGGGLVQPGRSLRLSCAASGFTFSNAWMHWVRQAPGKGLEWVAQIKDKSQNYATYYAESVKGRFTISRADSKNSIYLQMNSLKTEDTAVYYCRYVHYSASYGVDAWGQGTTVTVSS VL: DIVMTQSPLSLPVTPGEPASISCRSSQSPVHSNRNTYIHWYQQKPGQAPRLLIYKVSNRFSGVPDRFSGSGSGTDFTLKISRVEAEDVGVYYCVQGTQVPYTFGQGTKLEIK	16 nM
TR01H040-E22Hh/none-Hi-Kn010G3/L0232-k0 (antibody, V domains shown, one-arm) VH: QVQLVESGGGLVQPGRSLRLSCAASGFTFSNAWMHWVRQAPGKGLEWVAQIKDKSQNYATYYAESVKGRFTISRADSKNSIYLQMNSLKTEDTAVYYCRYVHYSASYGVDAWGQGTTVTVSS VL: DIVMTQSPLSLPVTPGEPASISCRSSESLVHSNRNTYLHWYQQKPGQAPRLLIYKVSNRFSGVPDRFSGSGSGTDFTLKISRVEAEDVGVYYCGQGTQVPYTFGQGTKLEIK	38.6 nM

Now from value to binder:

Kd	Binder
21.5 nM	TR01H040-E22Hh/none-Hi-Kn010G3/L0250-k0 (antibody, V domains shown, one-arm) VH: QVQLVESGGGLVQPGRSLRLSCAASGFTFSNAWMHWVRQAPGKGLEWVAQIKDKSQNYATYYAESVKGRFTISRADSKNSIYLQMNSLKTEDTAVYYCRYVHYSASYGVDAWGQGTTVTVSS VL: DIVMTQSPLSLPVTPGEPASISCRPSQSPVHSNRNTYIQWYQQKPGQAPRLLIYKVSNRFSGVPDRFSGSGSGTDFTLKISRVEAEDVGVYYCIQGTQVPYTFGQGTKLEIK
3.48 nM	TR01H040-E22Hh/none-Hi-Kn010G3/L0241-k0 (antibody, V domains shown, one-arm) VH: QVQLVESGGGLVQPGRSLRLSCAASGFTFSNAWMHWVRQAPGKGLEWVAQIKDKSQNYATYYAESVKGRFTISRADSKNSIYLQMNSLKTEDTAVYYCRYVHYSASYGVDAWGQGTTVTVSS VL: DIVMTQSPLSLPVTPGEPASISCRSSESPVHSNRNTYLHWYQQKPGQAPRLLIYKVSNRFWGVPDRFSGSGSGTDFTLKISRVEAEDVGVYYCYQGTQVPYTFGQGTKLEIK
92.8 nM	TR01H040-E22Hh/none-Hi-Kn010G3/L0246-k0 (antibody, V domains shown, one-arm) VH: QVQLVESGGGLVQPGRSLRLSCAASGFTFSNAWMHWVRQAPGKGLEWVAQIKDKSQNYATYYAESVKGRFTISRADSKNSIYLQMNSLKTEDTAVYYCRYVHYSASYGVDAWGQGTTVTVSS VL: DIVMTQSPLSLPVTPGEPASISCRSSQSPVHSNRNTYIQWYQQKPGQAPRLLIYKVSNRFSGVPDRFSGSGSGTDFTLKISRVEAEDVGVYYCSQGTQVPYTFGQGTKLEIK
100 nM	TR01H040-E22Hh/none-Hi-Kn010G3/L0247-k0 (antibody, V domains shown, one-arm) VH: QVQLVESGGGLVQPGRSLRLSCAASGFTFSNAWMHWVRQAPGKGLEWVAQIKDKSQNYATYYAESVKGRFTISRADSKNSIYLQMNSLKTEDTAVYYCRYVHYSASYGVDAWGQGTTVTVSS VL: DIVMTQSPLSLPVTPGEPASISCRSSQSPVHSNRNTYIQWYQQKPGQAPRLLIYKVSNRFSGVPDRFSGSGSGTDFTLKISRVEAEDVGVYYCIQGTQVPYTFGQGTKLEIK
3.58 nM	TR01H040-E22Hh/none-Hi-Kn010G3/L0242-k0 (antibody, V domains shown, one-arm) VH: QVQLVESGGGLVQPGRSLRLSCAASGFTFSNAWMHWVRQAPGKGLEWVAQIKDKSQNYATYYAESVKGRFTISRADSKNSIYLQMNSLKTEDTAVYYCRYVHYSASYGVDAWGQGTTVTVSS VL: DIVMTQSPLSLPVTPGEPASISCRSSESPVHSNRNTYIHWYQQKPGQAPRLLIYKVSNRFSGVPDRFSGSGSGTDFTLKISRVEAEDVGVYYCYQGTQVPYTFGQGTKLEIK
78.9 nM	TR01H040-E22Hh/none-Hi-Kn010G3/L0248-k0 (antibody, V domains shown, one-arm) VH: QVQLVESGGGLVQPGRSLRLSCAASGFTFSNAWMHWVRQAPGKGLEWVAQIKDKSQNYATYYAESVKGRFTISRADSKNSIYLQMNSLKTEDTAVYYCRYVHYSASYGVDAWGQGTTVTVSS VL: DIVMTQSPLSLPVTPGEPASISCRPSQSPVHSNRNTYIQWYQQKPGQAPRLLIYKVSNRFSGVPDRFSGSGSGTDFTLKISRVEAEDVGVYYCYQGTQVPYTFGQGTKLEIK
24.6 nM	TR01H040-E22Hh/none-Hi-Kn010G3/L0243-k0 (antibody, V domains shown, one-arm) VH: QVQLVESGGGLVQPGRSLRLSCAASGFTFSNAWMHWVRQAPGKGLEWVAQIKDKSQNYATYYAESVKGRFTISRADSKNSIYLQMNSLKTEDTAVYYCRYVHYSASYGVDAWGQGTTVTVSS VL: DIVMTQSPLSLPVTPGEPASISCRSSEPPVHSNRNTYLHWYQQKPGQAPRLLIYKVSNRFRGVPDRFSGSGSGTDFTLKISRVEAEDVGVYYCGQGTQVPYTFGQGTKLEIK
111 nM	TR01H040-E22Hh/none-Hi-Kn010G3/L0249-k0 (antibody, V domains shown, one-arm) VH: QVQLVESGGGLVQPGRSLRLSCAASGFTFSNAWMHWVRQAPGKGLEWVAQIKDKSQNYATYYAESVKGRFTISRADSKNSIYLQMNSLKTEDTAVYYCRYVHYSASYGVDAWGQGTTVTVSS VL: DIVMTQSPLSLPVTPGEPASISCRPSQSPVHSNRNTYIQWYQQKPGQAPRLLIYKVSNRFSGVPDRFSGSGSGTDFTLKISRVEAEDVGVYYCSQGTQVPYTFGQGTKLEIK
18.1 nM	TR01H040-E22Hh/none-Hi-Kn010G3/L0262-k0 (antibody, V domains shown, one-arm) VH: QVQLVESGGGLVQPGRSLRLSCAASGFTFSNAWMHWVRQAPGKGLEWVAQIKDKSQNYATYYAESVKGRFTISRADSKNSIYLQMNSLKTEDTAVYYCRYVHYSASYGVDAWGQGTTVTVSS VL: DIVMTQSPLSLPVTPGEPASISCRSSQPPVHSNRNTYLHWYQQKPGQAPRLLIYKVSNRFSGVPDRFSGSGSGTDFTLKISRVEAEDVGVYYCAQGTQVPYTFGQGTKLEIK
